Data on two molecules can be found in publication PMC4973743, “Functional analysis of structurally related soybean GmWRKY58 and GmWRKY76 in plant growth and development”.

Positions count from the first letter of the chain named.

One data set has as its target T1, GmWRKY76 (Glycine max (soybean), UniProt I1KB70 1-319).
T1 sequence: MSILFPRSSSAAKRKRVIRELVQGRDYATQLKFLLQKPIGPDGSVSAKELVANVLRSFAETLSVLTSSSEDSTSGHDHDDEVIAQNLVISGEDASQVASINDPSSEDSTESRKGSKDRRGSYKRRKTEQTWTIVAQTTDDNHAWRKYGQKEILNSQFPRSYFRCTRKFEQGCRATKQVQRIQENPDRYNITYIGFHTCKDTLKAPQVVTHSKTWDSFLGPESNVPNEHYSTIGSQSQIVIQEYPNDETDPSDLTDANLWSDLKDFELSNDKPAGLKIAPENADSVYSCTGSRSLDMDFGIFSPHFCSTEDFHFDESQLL
The data set is described as follows: EMSA; 5 ug poly(dI-dC), 1 ug protein; LightShift Chemiluminescent EMSA kit; 20 ul reactions, 2 ng labeled oligo, 5 ug poly(dI-dC), 1 ug recombinant protein; buffer, salt, pH and temperature not stated. To be noted: tags: His (pET32a fusion), label: biotin 3' end.

In a further data set the target is T2, GmWRKY58 (Glycine max (soybean), UniProt B0LUS3 1-317).
T2 sequence: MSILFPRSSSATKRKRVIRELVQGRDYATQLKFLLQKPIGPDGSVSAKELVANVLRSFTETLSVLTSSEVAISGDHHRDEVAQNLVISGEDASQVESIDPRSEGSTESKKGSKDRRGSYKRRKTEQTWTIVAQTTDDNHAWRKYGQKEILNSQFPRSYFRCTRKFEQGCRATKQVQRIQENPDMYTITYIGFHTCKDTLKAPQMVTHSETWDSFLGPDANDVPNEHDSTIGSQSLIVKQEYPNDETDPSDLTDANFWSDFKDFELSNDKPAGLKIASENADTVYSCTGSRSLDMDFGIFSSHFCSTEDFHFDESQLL
The description is as above. To be noted: tags: His (pET32a fusion), label: biotin 3' end.

B1: Pchn5 (dsDNA)
DNA 1: GGAACTTGACCATCCGTTGACCGGGCTGCAGGAATTCG
DNA 2: CGAATTCCTGCAGCCCGGTCAACGGATGGTCAAGTTCC
B1: the binding result with GmWRKY76 and in the data set with GmWRKY58 was “binds” each time.

B2: mPchn5 (dsDNA)
DNA 1: B1 DNA 1 with C10A, C21A
DNA 2: B1 DNA 2 with G18T, G29T
B2: the binding result with GmWRKY76 and in the data set with GmWRKY58 was “no binding” each time.
